B1: ATAD5 (1 to 500, S306E), the 'wild-type' ATAD5 (1 to 500) of the in vitro binding studies (domain or fragment, human, UniProt Q96QE3 1-500, looked up)
chain: MVGVLAMAAAAAPPPVKDCEIEPCKKRKKDDDTSTCKTITKYLSPLGKTRDRVFAPPKPSNILDYFRKTSPTNEKTQLGKECKIKSPESVPVDSNKDCTTPLEMFSNVEFKKKRKRVNLSHQLNNIKTENEAPIEISSDDSKEDYSLNNDFVESSTSVLRYKKQVEVLAENIQDTKSQPNTMTSLQNSKKVNPKQGTTKNDFKKLRKRKCRDVVDLSESLPLAEELNLLKKDGKDTKQMENTTSHANSRDNVTEAAQLNDSIITVSYEEFLKSHKENKVEEIPDSTMSICVPSETVDEIVKSGYIEESENSEISQQVRFKTVTVLAQVHPIPPKKTGKIPRIFLKQKQFEMENSLSDPENEQTVQKRKSNVVIQEEELELAVLEAGSSEAVKPKCTLEERQQFMKAFRQPASDALKNGVKKSSDKQKDLNEKCLYEVGRDDNSKKIMENSGIQMVSKNGNLQLHTDKGSFLKEKNKKLKKKNKKTLDTGAIPGKNREGNT

Assays:
[1] = target: UAF1 (UniProt Q8TAF3); experiment: FLAG co-immunoprecipitation, western blot; conditions: reference: wild type; sites S306
[2] = target: UAF1 (USP1-associated factor 1), purified recombinant (UniProt Q8TAF3 1-677); experiment: pull-down
UAF1 (USP1-associated factor 1), purified recombinant, sequence (Q8TAF3 whole entry): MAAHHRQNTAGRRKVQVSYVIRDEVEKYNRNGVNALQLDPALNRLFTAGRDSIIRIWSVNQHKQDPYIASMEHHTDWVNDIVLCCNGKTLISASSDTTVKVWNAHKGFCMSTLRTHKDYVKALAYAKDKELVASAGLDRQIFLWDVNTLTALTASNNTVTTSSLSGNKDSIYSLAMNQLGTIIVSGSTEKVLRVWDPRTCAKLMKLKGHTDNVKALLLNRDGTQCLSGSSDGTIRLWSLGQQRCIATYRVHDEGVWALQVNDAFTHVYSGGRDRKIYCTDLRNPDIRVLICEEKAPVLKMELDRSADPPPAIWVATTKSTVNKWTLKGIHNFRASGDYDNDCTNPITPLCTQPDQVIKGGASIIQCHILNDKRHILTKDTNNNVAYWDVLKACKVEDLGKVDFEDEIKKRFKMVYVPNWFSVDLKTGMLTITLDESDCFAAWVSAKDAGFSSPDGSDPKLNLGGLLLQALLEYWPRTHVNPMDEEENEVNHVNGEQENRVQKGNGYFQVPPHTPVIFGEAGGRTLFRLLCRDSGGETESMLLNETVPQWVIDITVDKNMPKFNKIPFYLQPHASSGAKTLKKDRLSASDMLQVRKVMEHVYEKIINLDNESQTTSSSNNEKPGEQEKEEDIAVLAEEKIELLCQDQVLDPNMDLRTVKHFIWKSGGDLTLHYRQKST

Molecule | binding against the reference [1] | binding result [2]
ATAD5 (from UniProt Q96QE3) S306A | weaker | –
B1 | – | binds
